Measurements as given in the supplement of paper PMC9732359.
± gives the uncertainty stated by the source.

Assay: protein stability index of a GFP-peptide fusion (yeast GPS) (PSI 1-4); higher = more stable; sorted into four equal gates, so the index is relative within each strain
Outline: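 Each library plasmid carries Cherry plus GFP with a tiled 17-residue yeast protein peptide fused downstream, and the pooled library was carried in yeast. Mid-log cultures in leucine-free medium were sorted into four equal gates by GFP/Cherry ratio. Reads from Illumina sequencing of PCR-amplified plasmids from each gate were assigned to strains by barcodes. Per peptide, the protein stability index was computed as the summed products of gate read frequency and gate number.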

Sequence	protein stability index (doa10∆)	protein stability index (pdr5∆)	protein stability index (san1∆)	protein stability index (ubr1∆)
DMIKCFLPKLNSVRNSL [NUT1]	2.52 ± 0.053	2.48 ± 0.089	2.47 ± 0.075	2.18 ± 0.035
SAFACKTDEVIILGTNL [BRR2]	2.86 ± 0.054	3 ± 0.043	2.94 ± 0.04	2.9 ± 0.035
SMKMELLKKELLTIEPK [SMC2]	2.85 ± 0.081	2.69 ± 0.064	2.8 ± 0.07	2.61 ± 0.053
LLGIFDDIFIPQNMLFE [RPC25]	2.33 ± 0.15	2.7 ± 0.17	2.52 ± 0.095	2.69 ± 0.1
VQYLRSVQDLGGSATAR [YML031W/NDC1]	2.14 ± 0.13	1.5 ± 0.069	1.53 ± 0.22	1.57 ± 0.064
DAYYDLELRNSVMDDIL [PRP8]	2.98 ± 0.055	3.04 ± 0.044	2.93 ± 0.049	3.09 ± 0.036
VFESLEINNLIQLPASL [ARP9]	1.61 ± 0.08	1.88 ± 0.05	1.83 ± 0.077	1.6 ± 0.055
QKKARTILQHLSEAWRC [PRP8]	1.96 ± 0.11	1.8 ± 0.097	2.28 ± 0.12	2.55 ± 0.16
QEAVNSLKGYKIENSVQ [CSI1]	3.2 ± 0.13	3.29 ± 0.079	3.32 ± 0.051	3.39 ± 0.073
SIDFRTYRCSIKNLPAD [SRB2]	2.32 ± 0.074	2.56 ± 0.079	2.19 ± 0.07	2.27 ± 0.067
MSLPATFDLTPEDAQLL [RPS0A]	2.75 ± 0.079	2.83 ± 0.12	2.47 ± 0.15	2.31 ± 0.11
KNKYLKDVLAQTSVTTN [SWP82]	2.5 ± 0.065	2.5 ± 0.06	2.71 ± 0.098	2.37 ± 0.044
GIKATNGVVIATEKKSS [PRE8]	2.91 ± 0.18	2.89 ± 0.17	2.52 ± 0.26	3.09 ± 0.11
QQMHEVRKELRGRAVVL [RPP0]	3.01 ± 0.14	3.05 ± 0.13	3.27 ± 0.099	2.58 ± 0.073
LLESYKTLSLKSMASAF [RPN7]	1.67 ± 0.093	2.31 ± 0.11	1.89 ± 0.14	1.12 ± 0.033
PNVSDKYYLEESNVNDS [NUT1]	3.2 ± 0.26	2.85 ± 0.15	3.21 ± 0.096	3.17 ± 0.14
TNKDNKAELIKPIQNGE [ARP9]	3.34 ± 0.071	3.14 ± 0.083	3.4 ± 0.046	3.16 ± 0.072
LFKGTGFNSWEGLFWEK [PRP8]	2.44 ± 0.12	2.42 ± 0.13	3.36 ± 0.13	1.64 ± 0.04
AGCKIDNVDDIGEFNVS [YDL088C/ASM4]	3.25 ± 0.11	2.8 ± 0.097	2.94 ± 0.096	3.06 ± 0.14
TFDGIRMSSEEVNSLLL [GRR1]	3.03 ± 0.099	3.04 ± 0.15	3.14 ± 0.15	2.92 ± 0.074
AICRNHIMEPCIECQPK [HRT1]	2.26 ± 0.081	3.23 ± 0.13	2.17 ± 0.094	2.67 ± 0.074
ISVIETIRVVTENKIFV [RPN5]	1.6 ± 0.14	1.82 ± 0.1	1.9 ± 0.27	2.03 ± 0.093
RISEKSVRKFLEIALFK [RPO31]	1.93 ± 0.14	1.15 ± 0.13	–	–
FETFLVDVNNKFIALCE [SIN4]	2.94 ± 0.062	3.05 ± 0.049	3.09 ± 0.045	3.1 ± 0.059
PSAGPHKLRESLPLIVF [RPS4A]	1.76 ± 0.048	1.75 ± 0.045	1.69 ± 0.087	2.05 ± 0.046
RKRPVPKGATYGKPTNQ [RPL15A]	–	3.29 ± 0.19	3.58 ± 0.19	3.45 ± 0.14
EAEMAYVKAVSDKAQLN [SMC4]	2.62 ± 0.062	2.33 ± 0.052	2.2 ± 0.072	2.26 ± 0.05

Sequence	protein stability index (doa10∆)	protein stability index (pdr5∆)	protein stability index (san1∆)	protein stability index (ubr1∆)
NDLEVGVATKDKFFTLS [SCL1]	3.18 ± 0.084	3.33 ± 0.067	3.08 ± 0.072	2.89 ± 0.12
LWINYIKELLNITKNLK [POP4]	1.34 ± 0.071	1.56 ± 0.062	1.62 ± 0.11	1.78 ± 0.054
LAEEKIRAAGGVVELIA [RPL28]	2.919 ± 0.025	3.072 ± 0.024	2.935 ± 0.023	2.931 ± 0.02
EDIVGALRRRVGPSEQN [REC8]	2.28 ± 0.074	1.58 ± 0.052	2.71 ± 0.12	2.43 ± 0.075
RAVKEIKKFAKLHMGTD [RPL31A]	1.7 ± 0.036	1.32 ± 0.041	1.23 ± 0.061	1.58 ± 0.035
SGELLQGIVRVYSKQAT [MCD1]	1.82 ± 0.047	2.17 ± 0.056	2.22 ± 0.058	1.76 ± 0.049
EQQKGQQTAQTQLEQQR [SNF5]	3.33 ± 0.11	3.4 ± 0.088	3.22 ± 0.079	3.1 ± 0.053
SNASQMGNTGSGGYDNA [RPB3]	3.43 ± 0.27	3.32 ± 0.17	3.52 ± 0.2	2.5 ± 0.15
GDIVRMLETAGFSMNNP [SMC3]	3.08 ± 0.095	3.26 ± 0.1	3.04 ± 0.089	3.16 ± 0.054
DPFSIYGFSNKEYISRL [SNF5]	1.89 ± 0.066	2.39 ± 0.15	2.69 ± 0.071	2.34 ± 0.075
IPMDFIRNVLVTVDQYV [SSN2]	1.13 ± 0.047	1.58 ± 0.056	1.33 ± 0.091	1.63 ± 0.06
VVVSGKLRAARAKAMKF [RPS3]	–	–	–	3.28 ± 0.29
TCVAKKGIAKEHAKWGP [RPB3]	3.31 ± 0.07	3.28 ± 0.08	3.21 ± 0.07	3.16 ± 0.047
NTAFGNSNPTSNVFGSN [YJL041W/NSP1]	3.06 ± 0.13	3.6 ± 0.17	–	3.6 ± 0.16
APTLSQTYINQELGFCE [SSN2]	2.85 ± 0.18	2.81 ± 0.16	1.95 ± 0.22	2.92 ± 0.18
KVFSLDPQYLVDDLRPE [ASC1]	2.94 ± 0.16	2.84 ± 0.1	3.04 ± 0.09	3.15 ± 0.078
GALEEITKDHKVLARQQ [FAS2]	2.31 ± 0.25	–	3.01 ± 0.12	2.73 ± 0.17
FLLEKAGERKIPHDLNF [TAF14]	2.43 ± 0.067	2.71 ± 0.062	2.61 ± 0.051	2.47 ± 0.046
NKVGSTGSLMGGNSTQN [YGR119C/NUP57]	3.02 ± 0.076	3.38 ± 0.098	3.19 ± 0.059	3.17 ± 0.053
VNSYRLNPNEYFSVTTA [SWI3]	–	2.84 ± 0.2	2.3 ± 0.26	2.78 ± 0.22
FMTKLLEVANDLQLLYV [IRR1]	1.72 ± 0.11	1.98 ± 0.075	2.23 ± 0.12	1.24 ± 0.045
FKLGKFNYVAVGDVSNL [QCR2]	3.28 ± 0.1	2.01 ± 0.1	2.38 ± 0.14	2.83 ± 0.068
RKAYFTAPSSERRVLLS [RPL26B]	1.45 ± 0.041	1.7 ± 0.051	2.49 ± 0.066	1.66 ± 0.045
TINEMMKHLGRSEGNPV [FAS2]	2.5 ± 0.09	2.76 ± 0.064	2.53 ± 0.066	2.94 ± 0.072
TQTVSGTPPMLHQRTHK [DSN1]	2.97 ± 0.12	3.11 ± 0.097	2.89 ± 0.16	2.98 ± 0.088
NQTNINSLAVRGKDCTV [SCL1]	2.83 ± 0.14	3.26 ± 0.088	3.29 ± 0.068	3.19 ± 0.12
